Measured values reported in patent publication US20170260272A1 (Novartis, published 2017).

What was measured:
[1] = target: T1, APP-Avi-soluble human LOX-1(61-273) (human, UniProt P78380 61-273); experiment: SET, IgG vs soluble human LOX-1
Protocol: Affinity determination for anti-LOX-1 IgGs using Solution Equilibrium Titration (SET) was basically performed as described in the literature (Friguet et al., 1985 J Immunol Methods 77: 305-319). The assays were performed in a 96-well polypropylene plate (Thermo Scientific, Catalog no. AB-1127) using a constant concentration of LOX-1 antibody mixed with different concentrations of non-biotinylated human or cynomolgus monkey LOX-1 protein and incubated at 22° C. for 14 hours with constant shaking (300 rpm).
On a pre-blocked MSD plate (Meso Scale Discovery, catalog no. L21SA) biotinylated human or cynomolgus monkey soluble LOX-1 protein was immobilized and washed afterwards. The equilibrium binding reactions were then applied to the MSD plate with immobilized LOX-1 and incubated for 30 min. The unbound material was removed by washing the plate, and the captured antibody was detected by adding Sulfo-tagged goat anti-human IgG (Meso Scale Discovery, catalog no. R3AJ-1). After incubation and washing 1×MSD read buffer T(Meso Scale Discovery, catalog no. R92TC-2) was added and the plate was developed using a Sector Imager 6000 (Meso Scale Discovery). The data were transferred to Excel for analysis and plotted using GraphPad Prism v5. The KD values were determined by fitting the data to the following equation: […]

[2] = target: T1, APP-Avi-soluble human LOX-1(61-273); experiment: competition ELISA: oxLDL binding to plate-bound biotinylated human sLOX-1
Protocol: NeutrAvidin 384 well plates were coated with 2.5 μg/ml biotinylated LOX-1 diluted in PBS. After blocking with 25% Block Ace (AbD Serotec, Cat#BUF029) in PBS, purified Fabs or IgGs diluted in PBS/1% BSA were added. Subsequently OxLDL (copper-sulfate oxidized LDL, Kalen Biomedical #770202) or MDA-LDL (Academy Biomedical, #20P-UMD-L102) ligand diluted in PBS/1% BSA were allowed to bind to coated LOX-1. Secondary antibody (HRP conjugated sheep anti ApoB IgG; The Binding Site) diluted 1:1,000 in PBS/1% BSA was added followed by addition of TMB substrate (Thermo Scientific). After 10 minutes 1M H2SO4 was added and absorbance was determined at 450 nm. During early screenings, Fab fragments were also tested in this oxLDL binding assay using Fab-containing crude E. coli lysates.
The ability of LOX-1 antibodies to inhibit oxLDL binding to LOX-1 protein was determined using the method described in Example 4. In addition to “high binding OxLDL” from Kalen Biomedical (catalog number 770212-7), which is generated by copper sulfate mediated oxidation of LDL, two other forms of modified LDL were tested in this assay: malondialdehyde modified LDL (Academy Bio-Medical Co. catalog number 20P-MD-L105) and hypochlorite modified LDL. Hypochlorite modified LDL was prepared according to the following procedure. Human LDL (Kalen Biomedical catalog number 770200-4) was diluted with PBS to a final concentration of 0.25 mg/mL. Sodium hypochlorite (NaOCI, JT Baker catalog number 9416-01) was then added to 0.1 mM final concentration. The solution was incubated at room temperate for 4 hours, then quenched by adding L-methionine to a final concentration of reaction by adding 5 μl of 100 mM Mehionine per 200 μl total volume.

Binder | Kd [1] [nM] | IC50 [2] [nM]
MOR020133 (antibody, human IgG1, lambda, L234A L235A, V domains shown, also called MOR20133) VH: QVQLVQSGAEVKKPGESLKISCKGSGYSFTNYWIAWVRQMPGKGLEWMGRIFPGDSTTTYSPSFQGQVTISADKSISTAYLQWSSLKASDTAMYYCARGKRGATHPTQYEGWEVYGFDPWGQGTLVTVSS VL: DIELTQPPSVSVSPGQTASITCSGDALGGKYASWYQQKPGQAPVLVIYDDNKRPSGIPERFSGSNSGNTATLTISGTQAEDEADYYCQSWAFYSGVFGGGTKLTVLG | 0.144 | 6
MOR020144 (antibody, human IgG1, lambda, L234A L235A, V domains shown, also called MOR20144) VH: QVQLLESGGGLVQPGGSLRLSCAASGFTFSDYALHWVRQAPGKGLEWVSVISYSGGYTYYADSVKGRFTISRDNSKNTLYLQMNSLRAEDTAVYYCARSPGLTSYHDSWGQGTLVTVSS VL: DIVLTQPPSVSGAPGQRVTISCSGSSSNIGSNYVSWYQQLPGTAPKLLIHSNSHRPSGVPDRFSGSKSGTSASLAITGLQAEDEADYYCQSWDYESERVVFGGGTKLTVLG | 0.0002 | 5
MOR020159 (antibody, human IgG1, kappa, L234A L235A, V domains shown, also called MOR20159) VH: QVQLVQSGAEVKKPGSSVKVSCKASGGTFSDYAISWVRQAPGQGLEWMGGIVPIVGTANYAQKFQGRVTITADESTSTAYMELSSLRSEDTAVYYCARDSSTSYYYYFDYWGQGTLVTVSS VL: DIQMTQSPSSLSASVGDRVTITCRASQDINSWLAWYQQKPGKAPKLLIYQASNLQSGVPSRFSGSGSGTDFTLTISSLQPEDFATYYCQQIDHTPFTFGQGTKVEIKR | 0.56 | 5
MOR020151 (antibody, human IgG1, lambda, L234A L235A, V domains shown, also called MOR20151) VH: QVQLVESGGGLVKPGGSLRLSCAASGFTFSSYALSWVRQAPGKGLEWVGRIKSKTMGGTSDYAAPVKGRFTISRDDSKNTLYLQMNSLKTEDTAVYYCARDFWADHYYYFDYWGQGTLVTVSS VL: DIALTQPASVSGSPGQSITISCTGTSSDVGYINYVNWYQQHPGKAPKLMIYEVSNRPSGVSNRFSGSKSGNTASLTISGLQAEDEADYYCASWDWYDNVVFGGGTKLTVLG | 0.27 | 7
MOR020052 (antibody, human IgG1, lambda, L234A L235A, V domains shown, also called MOR20052) VH: QVQLVQSGAEVKKPGSSVKVSCKASGGTFSDYAISWVRQAPGQGLEWMGGIIPGFGQANYAQKFQGRVTITADESTSTAYMELSSLRSEDTAVYYCAREPSPLYGPYSDYVMDPWGQGTLVTVSS VL: DIALTQPASVSGSPGQSITISCTGTSSDVGYFNFVSWYQQHPGKAPKLMIYDVSNRPSGVSNRFSGSKSGNTASLTISGLQAEDEADYYCASYGWDSSWVFGGGTKLTVLG | 0.5 | 12
MOR020148 (antibody, human IgG1, lambda, L234A L235A, V domains shown, also called MOR20148) VH: QVQLLESGGGLVQSGGSLRLSCAASGFTFRSGAAMHWVRQAPGKGLEWVSGISSFSSSTDYADSVKGRFTISRDNSKNTLYLQMNSLRAEDTAVYYCARNFKYAMDYWGQGTLVTVSS VL: DIALTQPASVSGSPGQSITISCTGTSSDVGSINYVSWYQQHPGKAPKMIYAVSYRPSGVSNRFSGSKSGNTASLTISGLQAEDEADYYCQVWDWRSDSRVFGGGTKLTVLG | 6.5 | 9

Continued, values first:

Kd [1] [nM] | IC50 [2] [nM] | Binder
0.0001 | – | MOR021451 (antibody, V domains shown, IgG (human IgG1f LALA); parent MOR20152 with the printed HCDR2 stretch exchanged) VH: QVQLVQSGAEVKKPGSSVKVSCKASGGTFSSYAISWVRQAPGQGLEWMGRIVPGFVYTSYAQKFQGRVTITADESTSTAYMELSSLRSEDTAVYYCARDPLYRSDYYYHWFDFWGQGTLVTVSS VL: DIALTQPASVSGSPGQSITISCTGTSSDVGNFNYVSWYQQHPGKAPKLMIYGVNNRPSGVSNRFSGSKSGNTASLTISGLQAEDEADYYCAAYGWALDEVVFGGGTKLTVLG
0.0003 | – | MOR021455 (antibody, V domains shown, IgG (human IgG1f LALA); parent MOR20152 with the printed HCDR2 stretch exchanged) VH: QVQLVQSGAEVKKPGSSVKVSCKASGGTFSSYAISWVRQAPGQGLEWMGRIIPQWAGTPEYAQKFQGRVTITADESTSTAYMELSSLRSEDTAVYYCARDPLYRSDYYYHWFDFWGQGTLVTVSS VL: DIALTQPASVSGSPGQSITISCTGTSSDVGNFNYVSWYQQHPGKAPKLMIYGVNNRPSGVSNRFSGSKSGNTASLTISGLQAEDEADYYCAAYGWALDEVVFGGGTKLTVLG
0.03 | – | MOR021445 (antibody, V domains shown, IgG (human IgG1f LALA); parent MOR20133 with the printed HCDR2 stretch exchanged) VH: QVQLVQSGAEVKKPGESLKISCKGSGYSFTNYWIAWVRQMPGKGLEWMGAIRPEWSETKYSPSFQGQVTISADKSISTAYLQWSSLKASDTAMYYCARGKRGATHPTQYEGWEVYGFDPWGQGTLVTVSS VL: DIELTQPPSVSVSPGQTASITCSGDALGGKYASWYQQKPGQAPVLVIYDDNKRPSGIPERFSGSNSGNTATLTISGTQAEDEADYYCQSWAFYSGVFGGGTKLTVLG
0.035 | – | MOR021444 (antibody, V domains shown, IgG (human IgG1f LALA); parent MOR20133 with the printed HCDR2 stretch exchanged) VH: QVQLVQSGAEVKKPGESLKISCKGSGYSFTNYWIAWVRQMPGKGLEWMGRIEPLSSTTEYSPSFQGQVTISADKSISTAYLQWSSLKASDTAMYYCARGKRGATHPTQYEGWEVYGFDPWGQGTLVTVSS VL: DIELTQPPSVSVSPGQTASITCSGDALGGKYASWYQQKPGQAPVLVIYDDNKRPSGIPERFSGSNSGNTATLTISGTQAEDEADYYCQSWAFYSGVFGGGTKLTVLG
0.075 | – | MOR021443 (antibody, V domains shown, IgG (human IgG1f LALA); parent MOR20133 with the printed HCDR2 stretch exchanged) VH: QVQLVQSGAEVKKPGESLKISCKGSGYSFTNYWIAWVRQMPGKGLEWMGRIFPGKSETSYSPSFQGQVTISADKSISTAYLQWSSLKASDTAMYYCARGKRGATHPTQYEGWEVYGFDPWGQGTLVTVSS VL: DIELTQPPSVSVSPGQTASITCSGDALGGKYASWYQQKPGQAPVLVIYDDNKRPSGIPERFSGSNSGNTATLTISGTQAEDEADYYCQSWAFYSGVFGGGTKLTVLG
0.004 | – | MOR021442 (antibody, V domains shown, IgG (human IgG1f LALA); parent MOR20159 with the printed LCDR3 stretch exchanged) VH: QVQLVQSGAEVKKPGSSVKVSCKASGGTFSDYAISWVRQAPGQGLEWMGGIVPIVGTANYAQKFQGRVTITADESTSTAYMELSSLRSEDTAVYYCARDSSTSYYYYFDYWGQGTLVTVSS VL: DIQMTQSPSSLSASVGDRVTITCRASQDINSWLAWYQQKPGKAPKLLIYQASNLQSGVPSRFSGSGSGTDFTLTISSLQPEDFATYYCQQMHRLPVTFGQGTKVEIKR
0.0003 | – | MOR021448 (antibody, V domains shown, IgG (human IgG1f LALA); parent MOR20052 with the printed HCDR2 stretch exchanged) VH: QVQLVQSGAEVKKPGSSVKVSCKASGGTFSDYAISWVRQAPGQGLEWMGRVIRPYYGWTEYAQKFQGRVTITADESTSTAYMELSSLRSEDTAVYYCAREPSPLYGPYSDYVMDPWGQGTLVTVSS VL: DIALTQPASVSGSPGQSITISCTGTSSDVGYFNFVSWYQQHPGKAPKLMIYDVSNRPSGVSNRFSGSKSGNTASLTISGLQAEDEADYYCASYGWDSSWVFGGGTKLTVLG
0.0003 | – | MOR021449 (antibody, V domains shown, IgG (human IgG1f LALA); parent MOR20052 with the printed HCDR2 stretch exchanged) VH: QVQLVQSGAEVKKPGSSVKVSCKASGGTFSDYAISWVRQAPGQGLEWMGGIQPGFAGAWYAQKFQGRVTITADESTSTAYMELSSLRSEDTAVYYCAREPSPLYGPYSDYVMDPWGQGTLVTVSS VL: DIALTQPASVSGSPGQSITISCTGTSSDVGYFNFVSWYQQHPGKAPKLMIYDVSNRPSGVSNRFSGSKSGNTASLTISGLQAEDEADYYCASYGWDSSWVFGGGTKLTVLG
0.006 | – | MOR021553 (antibody, V domains shown, IgG (human IgG1f LALA); parent MOR20148 with the printed HCDR2 stretch exchanged) VH: QVQLLESGGGLVQSGGSLRLSCAASGFTFRSGAAMHWVRQAPGKGLEWVSSIEYFGSATLYADSVKGRFTISRDNSKNTLYLQMNSLRAEDTAVYYCARNFKYAMDYWGQGTLVTVSS VL: DIALTQPASVSGSPGQSITISCTGTSSDVGSINYVSWYQQHPGKAPKMIYAVSYRPSGVSNRFSGSKSGNTASLTISGLQAEDEADYYCQVWDWRSDSRVFGGGTKLTVLG
